Data on one molecule can be found in publication PMC3538135.

For the data set, the target named is CD4 (recombinant CD4 antigen) (UniProt P01730 26-396). The data set can be described thus: ellipsometry.

B1: IFN-gamma aptamer (nonsense control) (ssDNA)
DNA: GGGGTTGGTTGTGTTGGGTGTTGTGTCCAACCCCC
modifications: 5' thiol-C6
B1: the binding result is “no binding”.
